Data on one molecule can be found in paper doi:10.1101/790931, “Pal stabilises the bacterial outer membrane during constriction by a mobilisation-and-capture mechanism” (bioRxiv, 2019).

In this assay the target is T1, C-terminal domain of Pseudomonas aeruginosa TolA (TolA^224-347) (Pseudomonas aeruginosa, UniProt P50600 224-347).
T1 construct: TolA, Pseudomonas aeruginosa, C-terminal domain, residues 224-347; Uniformly 15N- or 13C/15N-labelled for the NMR experiments, unlabelled for fluorescence anisotropy; also called wild-type TolA (residues 224-347); C-terminal domain of TolA; not shown: His tag, N-terminal, cleaved; Im9, N-terminal, cleaved
T1 sequence (looked up): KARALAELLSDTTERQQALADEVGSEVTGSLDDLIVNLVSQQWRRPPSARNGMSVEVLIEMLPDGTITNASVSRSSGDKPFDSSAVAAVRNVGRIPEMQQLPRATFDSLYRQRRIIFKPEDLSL
As to the kind of experiment: NMR titration; TolB peptide added to 0.6 mM 15N-labelled TolA; 1H,15N-HSQC; 20 mM phosphate, 100 mM NaCl, pH 7.6; slow exchange, ratio of bound and free peak volumes; fits for Ser271, Ser306, Gly316, Leu347. The settings on record: both partners purified.

No end group written: not given here.

B1: P. aeruginosa TolB[22-34] peptide (the TolA box) (peptide)
peptide: ADPLVISSGNDRA-NH2
notes: TolB, Pseudomonas aeruginosa, residues 22-34, the N-terminus of secreted TolB; also called TolB[22-33]; (in supplementary legends); N-terminus of TolB; source: synthetic peptide (thinkpeptides UK (ProImmune))
As a reminder, the Kd is the equilibrium constant for the complex coming apart. As for B1, the dissociation constant Kd is 220 µM.
